Source: US20240270821A1, “GIP/GLP1/GCG TRI-RECEPTOR AGONISTS AND USES THEREOF” (priority 2023, published 2024)
Where a chain is given by its changes, count along the chain named.

T1: human GIP receptor (human) (UniProt P48546)
T1 sequence (looked up): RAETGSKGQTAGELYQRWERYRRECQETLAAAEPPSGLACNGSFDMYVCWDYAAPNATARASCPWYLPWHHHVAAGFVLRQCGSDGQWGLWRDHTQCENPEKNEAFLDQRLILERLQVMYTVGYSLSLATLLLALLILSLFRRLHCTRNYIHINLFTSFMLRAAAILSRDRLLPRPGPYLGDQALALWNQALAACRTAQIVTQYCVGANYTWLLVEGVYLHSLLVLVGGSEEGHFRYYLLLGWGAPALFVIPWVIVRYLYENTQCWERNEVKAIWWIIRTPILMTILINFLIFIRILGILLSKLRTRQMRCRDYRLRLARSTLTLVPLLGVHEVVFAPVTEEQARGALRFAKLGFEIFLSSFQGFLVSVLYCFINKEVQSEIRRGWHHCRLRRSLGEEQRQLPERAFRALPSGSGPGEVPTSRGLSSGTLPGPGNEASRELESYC

B1: Example 695 (peptide)
chain: YXQGTXTSDXXIXLDXKAAXEFIEXLVEGGPSSGEPPPSGS
modifications: synthetic construct; SITE 2: note = 2-Aminoisobutyric Acid; SITE 6: note = alpha-methyl-2-fluoro-L-phenylalanine; SITE 10: note = 3-(4-Pyridyl)-L-alanine; SITE 11: note = alpha-methyl-L-serine; SITE 13: note = alpha-methyl-leucine; SITE 16: note = L-ornithine; SITE 17: note = Lysine is chemically mo
B2: Example 693 (peptide)
chain: B1 chain with E35A
modifications: synthetic construct; SITE 2: note = 2-Aminoisobutyric Acid; SITE 6: note = alpha-methyl-2-fluoro-L-phenylalanine; SITE 10: note = 3-(4-Pyridyl)-L-alanine; SITE 11: note = alpha-methyl-L-serine; SITE 13: note = alpha-methyl-leucine; SITE 16: note = L-ornithine; SITE 17: note = Lysine is chemically mo
B3: Example 722 (peptide)
chain: B1 chain with V27I, E35A, S41X
modifications: C-terminal γGlu; C-terminal amide; synthetic construct; SITE 2: note = 2-Aminoisobutyric Acid; SITE 6: note = alpha-methyl-2-fluoro-L-phenylalanine; SITE 10: note = 3-(4-Pyridyl)-L-alanine; SITE 11: note = alpha-methyl-L-serine; SITE 13: note = alpha-methyl-leucine; SITE 16: note = L-ornithine; SITE 17: note = Lysine is chemically mo
B4: Example 702 (peptide)
chain: YXQGTXTSDXXIXLDXKAAXEFIEXLIEGGPSSGAPPPSGSE
modifications: synthetic construct; SITE 2: note = 2-Aminoisobutyric Acid; SITE 6: note = alpha-methyl-2-fluoro-L-phenylalanine; SITE 10: note = 3-(4-Pyridyl)-L-alanine; SITE 11: note = alpha-methyl-L-serine; SITE 13: note = alpha-methyl-leucine; SITE 16: note = L-ornithine; SITE 17: note = Lysine is chemically mo
B5: Example 720 (peptide)
chain: B4 chain with A35E
modifications: synthetic construct; SITE 2: note = 2-Aminoisobutyric Acid; SITE 6: note = alpha-methyl-2-fluoro-L-phenylalanine; SITE 10: note = 3-(4-Pyridyl)-L-alanine; SITE 11: note = alpha-methyl-L-serine; SITE 13: note = alpha-methyl-leucine; SITE 16: note = L-ornithine; SITE 17: note = Lysine is chemically mo
B6: Example 719 (peptide)
chain: B4 chain with A35E, S41T
modifications: synthetic construct; SITE 2: note = 2-Aminoisobutyric Acid; SITE 6: note = alpha-methyl-2-fluoro-L-phenylalanine; SITE 10: note = 3-(4-Pyridyl)-L-alanine; SITE 11: note = alpha-methyl-L-serine; SITE 13: note = alpha-methyl-leucine; SITE 16: note = L-ornithine; SITE 17: note = Lysine is chemically mo
B7: Example 703 (peptide)
chain: B4 chain with S41E
modifications: synthetic construct; SITE 2: note = 2-Aminoisobutyric Acid; SITE 6: note = alpha-methyl-2-fluoro-L-phenylalanine; SITE 10: note = 3-(4-Pyridyl)-L-alanine; SITE 11: note = alpha-methyl-L-serine; SITE 13: note = alpha-methyl-leucine; SITE 16: note = L-ornithine; SITE 17: note = Lysine is chemically mo
B8: Example 669 (peptide)
chain: YXQGTXTSDXSILLDKKAQXAFIEXLEEGGPSSGAPPPSGTGE
modifications: synthetic construct; SITE 2: note = 2-Aminoisobutyric Acid; SITE 6: note = alpha-methyl-2-fluoro-L-phenylalanine; SITE 10: note = 3-(4-Pyridyl)-L-alanine; SITE 17: note = Lysine is chemically modified through conjugation of the epsilon-amino group of the Lysine side chain with (2-[2-(2-Amino-ethoxy))
B9: Example 64 (peptide)
chain: YXQGTFTSDFSXXLDKKAQXAFIEYLLEGGPSSGAPPPGGSG
modifications: synthetic construct; SITE 2: note = 2-Aminoisobutyric Acid; SITE 12: note = L-ornithine; SITE 13: note = alpha-methyl-leucine; SITE 17: note = Lysine is chemically modified through conjugation of the epsilon-amino group of the Lysine side chain with (2-[2-(2-Amino-ethoxy)-ethoxy]-acetyl)-(gamma-Glu)
B10: Example 65 (peptide)
chain: B9 chain with G42E
modifications: synthetic construct; SITE 2: note = 2-Aminoisobutyric Acid; SITE 12: note = L-ornithine; SITE 13: note = alpha-methyl-leucine; SITE 17: note = Lysine is chemically modified through conjugation of the epsilon-amino group of the Lysine side chain with (2-[2-(2-Amino-ethoxy)-ethoxy]-acetyl)-(gamma-Glu)
B11: Example 682 (peptide)
chain: B1 chain with X11S, A19Q, E21X, V27I, S41E
modifications: synthetic construct; SITE 2: note = 2-Aminoisobutyric Acid; SITE 6: note = alpha-methyl-2-fluoro-L-phenylalanine; SITE 10: note = 3-(4-Pyridyl)-L-alanine; SITE 13: note = alpha-methyl-leucine; SITE 16: note = L-ornithine; SITE 17: note = Lysine is chemically modified through conjugation of the epsil
B12: Example 698 (peptide)
chain: B1 chain with A19Q, E21X, V27I, S39E, S41E
modifications: synthetic construct; SITE 2: note = 2-Aminoisobutyric Acid; SITE 6: note = alpha-methyl-2-fluoro-L-phenylalanine; SITE 10: note = 3-(4-Pyridyl)-L-alanine; SITE 11: note = alpha-methyl-L-serine; SITE 13: note = alpha-methyl-leucine; SITE 16: note = L-ornithine; SITE 17: note = Lysine is chemically mo

target: hGLP-1R (Homo sapiens, UniProt P43220); assay: cell-based or functional assay
Sequence (P43220 24-463): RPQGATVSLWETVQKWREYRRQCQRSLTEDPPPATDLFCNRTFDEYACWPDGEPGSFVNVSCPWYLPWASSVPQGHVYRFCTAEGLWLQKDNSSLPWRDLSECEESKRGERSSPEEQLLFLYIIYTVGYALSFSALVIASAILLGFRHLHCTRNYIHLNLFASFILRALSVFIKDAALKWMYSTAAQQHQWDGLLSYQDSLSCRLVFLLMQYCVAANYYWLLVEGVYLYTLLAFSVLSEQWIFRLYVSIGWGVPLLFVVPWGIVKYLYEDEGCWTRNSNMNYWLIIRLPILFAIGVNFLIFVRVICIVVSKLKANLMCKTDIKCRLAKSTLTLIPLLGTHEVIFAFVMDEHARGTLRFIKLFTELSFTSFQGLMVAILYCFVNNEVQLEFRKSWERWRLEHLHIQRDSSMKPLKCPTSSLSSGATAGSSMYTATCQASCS

Row | Binder | cAMP Rel EC50 (1% HSA) [nM] | Relative cAMP EC50 [nM] | cAMP Rel EC50, nM (in the presence of 1% HSA) [nM]
1 | B1 | 19.5 |  | 
2 | B2 | 18 |  | 
3 | B3 | 27.2 | 0.252 | 
4 | B4 | 28.4 | 0.243 | 
5 | B5 | 28.3 | 0.245 | 
6 | B6 | 23.2 | 0.22 | 
7 | B7 | 27.1 | 0.233 | 
8 | B8 | 27.3 |  | 
9 | B9 |  | 4.08 | 397
10 | B10 |  | 4.21 | 462
11 | B11 | 14 |  | 
12 | B12 | 20.6 | 0.252 | 

target: human glucagon receptor (human) (UniProt P47871); assay: cell-based or functional assay
Sequence (P47871 26-477): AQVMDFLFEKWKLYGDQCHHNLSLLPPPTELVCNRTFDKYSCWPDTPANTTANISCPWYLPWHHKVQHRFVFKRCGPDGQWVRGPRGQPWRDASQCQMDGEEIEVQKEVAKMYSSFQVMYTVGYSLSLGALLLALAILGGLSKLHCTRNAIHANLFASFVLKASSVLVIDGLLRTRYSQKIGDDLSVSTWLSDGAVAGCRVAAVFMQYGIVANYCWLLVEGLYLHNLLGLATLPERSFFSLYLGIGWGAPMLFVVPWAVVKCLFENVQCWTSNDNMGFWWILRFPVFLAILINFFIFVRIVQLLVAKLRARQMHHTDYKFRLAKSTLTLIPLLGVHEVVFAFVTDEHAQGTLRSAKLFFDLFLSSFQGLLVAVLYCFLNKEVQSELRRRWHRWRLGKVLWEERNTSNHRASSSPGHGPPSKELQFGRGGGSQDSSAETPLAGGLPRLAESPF

Row | Binder | cAMP Rel EC50 (1% HSA) [nM] | Relative cAMP EC50 [nM] | cAMP Rel EC50, nM (in the presence of 1% HSA) [nM]
13 | B1 | 164 |  | 
14 | B2 | 304 |  | 
15 | B3 | 170 | 1.71 | 
16 | B4 | 196 | 1.5 | 
17 | B5 | 239 | 1.78 | 
18 | B6 | 181 | 1.44 | 
19 | B7 | 201 | 1.56 | 
20 | B8 | 173 |  | 
21 | B9 |  | 4.94 | 626
22 | B10 |  | 6.49 | 808
23 | B11 | 127 |  | 
24 | B12 | 124 | 1.53 | 

target: T1, human GIP receptor (human); assay: cell-based or functional assay

Row | Binder | cAMP Rel EC50 (1% HSA) [nM] | Relative cAMP EC50 [nM] | cAMP Rel EC50, nM (in the presence of 1% HSA) [nM]
25 | B1 | 0.772 |  | 
26 | B2 | 1.1 |  | 
27 | B3 | 0.953 | 0.01 | 
28 | B4 | 1.25 | 0.0116 | 
29 | B5 | 1.02 | 0.0103 | 
30 | B6 | 0.882 | 0.00998 | 
31 | B7 | 0.961 | 0.0101 | 
32 | B8 | 1.41 |  | 
33 | B9 |  | 0.309 | 24.9
34 | B10 |  | 0.739 | 30.2
35 | B11 | 0.415 |  | 
36 | B12 | 0.824 | 0.0112 | 
